From the supplement of paper PMC10126150
± gives the standard deviation of the averaged measurements.

System: ATP
Assay: switch fluorescence ratio, 500 uM ATP over buffer (Cy3 cluster intensity, sum of 5 cycles each) (fold (ratio)); higher = stronger signal-on switching upon ATP binding; sequences stand for … in TCGTCGGCAGCGTCAGATGTGTATAAGAGACAGTTTTTTTTTTTTTTTTTTTTTTTTT…TC
Conditions: aptamer strand: ATP DNA aptamer (quencher-CACCTGGGGGAGTATTGCGGAGGAAGG + anchor), 100 nM annealed; ATP concentration: 500 uM
How it was run: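 After annealing to 100 nM quencher-labelled ATP aptamer, Cy3-labelled switching-strand clusters on a modified Illumina MiSeq flow-cell were imaged in selection buffer. A second image followed after 15 min with 500 uM ATP at 22 °C, and five such buffer/ATP cycles were done, each separated by NaOH stripping and re-annealing. The fluorescence ratio, averaged per switch-domain sequence, is summed target-cycle over summed buffer-cycle Cy3 intensity per cluster, with clusters outside 100-1000 RFU excluded.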
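Note: ATP exposure 15 min at 22 °C before imaging.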

Row | Sequence | switch fluorescence ratio
1 | CTAAGAGCGC | 1.08 ± 0.064
2 | AAGATCATTG | 0.98 ± 0.041
3 | CTGGATTGAG | 0.956 ± 0.027
4 | CTAAAAGGCG | 1.06 ± 0.04
5 | AGGGGGGGCC | 0.992 ± 0.038
6 | AAGCATAGTC | 1.06 ± 0.036
7 | TTATTCAAAT | 1.02 ± 0.035
8 | GGGTTGCAAC | 1.24 ± 0.32
9 | ATAGGAAAGG | 0.999 ± 0.035
10 | TCACGGTTGC | 1.04 ± 0.016
11 | AAGACTAGTT | 0.999 ± 0.03
12 | GGGTAAGTTG | 0.962 ± 0.05
13 | GTAGGAGGGA | 1.05 ± 0.1
14 | AGCTAGAGTC | 1.03 ± 0.028
15 | ACGGCCGGTC | 0.9773 ± 0.0026
16 | ACTGTACCGG | 1.45 ± 0.04
17 | AGGGCACGGG | 0.982 ± 0.023
18 | ACGGCTGTTA | 1.012 ± 0.0046
19 | TGAATAAAGT | 0.978 ± 0.021
20 | TTTTATAGTT | 1 ± 0.023
21 | TCGTGCGCTG | 0.997 ± 0.079
22 | ATTTGAGCTA | 1.04 ± 0.023
23 | TTTGTTTTCA | 0.989 ± 0.034

Row | Sequence | switch fluorescence ratio
24 | TCGTTGGTTT | 0.994 ± 0.021
25 | GTATTTCGGC | 0.994 ± 0.027
26 | AGGTACGGGA | 1.03 ± 0.074
27 | CAGGTTTTGT | 1.01 ± 0.036
28 | TGAGAGATTT | 0.984 ± 0.011
29 | AGGATTAGCT | 0.999 ± 0.042
30 | GCCAGAGTG | 2 ± 0.44
31 | TTGGCGTATC | 0.946 ± 0.041
32 | AAGGGGTCTG | 0.979 ± 0.02
33 | ATTGAGTGTT | 0.987 ± 0.034
34 | GCTGTGGCT | 0.972 ± 0.01
35 | ATTTGGGGAT | 1.02 ± 0.03
36 | TGTGTTAAGG | 0.973 ± 0.011
37 | TTTTATCTAG | 1.01 ± 0.012
38 | TTATACCTTA | 1.065 ± 0.0043
39 | TGGTTTTCTT | 0.992 ± 0.03
40 | TATAGTATGT | 1.01 ± 0.015
41 | GATTTTTGGT | 0.995 ± 0.028
42 | GGTTATAGGG | 0.9802 ± 0.008
43 | AGGTTACCGC | 1.03 ± 0.048
44 | TTCTGAGGGA | 1 ± 0.03
45 | AAAAGTACGA | 1.07 ± 0.011
46 | GGTGCCGTGC | 0.995 ± 0.034

Row | Sequence | switch fluorescence ratio
47 | ACAGACTCGC | 1.01 ± 0.019
48 | GCCCGACTCT | 1.01 ± 0.041
49 | TGATTGAGGA | 0.981 ± 0.027
50 | TGTGAATCAG | 1.018 ± 0.0075
51 | ACGTTGGAGA | 1.06 ± 0.0051
52 | ATTTTCTTTG | 0.9958 ± 0.0089
53 | TGTAAGGGTG | 0.974 ± 0.065
54 | ACATGTGGCA | 1.04 ± 0.018
55 | CAGTTATGAC | 0.987 ± 0.011
56 | ATTGTTTTGG | 0.981 ± 0.028
57 | TAAAGCAGGG | 1.01 ± 0.023
58 | CGTCCTATTT | 1.01 ± 0.029
59 | AGGCGGCCGT | 0.9889 ± 0.0082
60 | TATTTTATGT | 1.021 ± 0.0042
61 | TGATTAAGGG | 0.9752 ± 0.0072
62 | CAGAGATGGG | 0.9997 ± 0.0049
63 | TTTCGTAGGT | 1.02 ± 0.022
64 | GTGTAGAGTT | 1.02 ± 0.016
65 | TTTTTGAATT | 1 ± 0.034
66 | AGTGTAAAAA | 1.04 ± 0.078
67 | CGGGTGTGGC | 1.05 ± 0.015
68 | TAAGTCGGTC | 0.9827 ± 0.0011
69 | TGTTGAAATC | 1.01 ± 0.076

Row | Sequence | switch fluorescence ratio
70 | AATTAAGGCA | 0.9756 ± 0.0065
71 | CAGGGGTTTA | 1.03 ± 0.034
72 | GTTAGAGGTT | 0.999 ± 0.03
73 | ACGATGTATC | 1.06 ± 0.049
74 | TAGGGAAAGA | 1 ± 0.014
75 | ATATGGTTGG | 0.958 ± 0.016
76 | GGATTTTGGA | 1 ± 0.018
77 | TAGAATCAGG | 1.055 ± 0.0011
78 | TCCTAAACGT | 1.072 ± 0.0029
79 | GTTTTTACGA | 1.03 ± 0.027
80 | TGCTCCTTCT | 1.09 ± 0.011
81 | GGGGGAATGT | 0.983 ± 0.026
82 | TACTTTATTA | 1.019 ± 0.0035
83 | CTAATCCACT | 1.028 ± 0.004
84 | GGCATAACAC | 1.093 ± 0.0088
85 | AGTGGAGCGG | 0.995 ± 0.016
86 | GGGGAGAGAT | 0.999 ± 0.064
87 | TTGTGGTTGT | 0.966 ± 0.016
88 | TAGAGGATGC | 0.998 ± 0.07
89 | CGGACCAACG | 1.09 ± 0.019
90 | GAGGGAGATG | 1.03 ± 0.018
91 | GAGACATTGG | 1 ± 0.062
92 | GACTGATCGT | 1.008 ± 0.0059

Row | Sequence | switch fluorescence ratio
93 | TGAGGAAAGA | 0.988 ± 0.035
94 | GTTTATAGAG | 1.01 ± 0.039
95 | AAGTATGTTC | 1.004 ± 0.0014
96 | CAAGGGCGGG | 0.997 ± 0.063
97 | AATGTGCAGT | 0.9627 ± 0.0043
98 | TGCAATTGGT | 1.01 ± 0.016
99 | TGCGTCAGGC | 1.09 ± 0.045
100 | TTATGAGGGT | 0.982 ± 0.015
101 | AGCTTTAAAA | 0.981 ± 0.025
102 | TTGGCATAAG | 1.16 ± 0.28
103 | GAGTTCATAG | 1 ± 0.013
104 | AATAACTGGT | 1.04 ± 0.028
105 | CCGGGGGGAG | 1.02 ± 0.045
106 | TCAGGGCTAG | 0.9837 ± 0.0093
107 | TAATGTGCAA | 1.09 ± 0.013
108 | TACCGGGTCT | 1.032 ± 0.005
109 | GCAATAATTA | 1.1 ± 0.046
110 | TGATTGGGCT | 1.03 ± 0.015
111 | AAGGCTGGCT | 0.99 ± 0.027
112 | TGAAGTTCTT | 0.965 ± 0.011
113 | ATAAGGGATG | 0.998 ± 0.017
114 | TGGTTTTAGG | 0.99 ± 0.029
115 | AACAGGGGGT | 1.01 ± 0.032

Row | Sequence | switch fluorescence ratio
116 | GGTTCACGGG | 0.983 ± 0.015
117 | AGTAATTGGT | 0.9954 ± 0.0088
118 | GAGGTTGTTT | 0.977 ± 0.02
119 | ATCAACGGTG | 1.01 ± 0.044
120 | TAGGTTCCGG | 0.993 ± 0.034
121 | GATATACCTT | 1.15 ± 0.015
122 | GTTGTTAGGT | 0.97 ± 0.022
123 | GACGACGGGG | 1.05 ± 0.028
124 | AGTGTGTCTT | 0.9877 ± 0.004
125 | AAAGGGTGGC | 1.01 ± 0.028
126 | ATCAAATATC | 1.036 ± 0.0086
127 | TTGTGTTGG | 1.03 ± 0.019
128 | ATGGAGGCGC | 0.981 ± 0.028
129 | CTAGCCATTG | 0.995 ± 0.022
130 | TTTGGGGCCT | 1.06 ± 0.15
131 | TGCCGTAGTC | 0.9685 ± 0.0092
132 | GTTTTAGGCG | 0.986 ± 0.028
133 | AAGTTGCGGA | 0.975 ± 0.019
134 | TGCTTCGGGA | 1.1288 ± 0.0008
135 | GCGGTGCCTG | 0.977 ± 0.042
136 | AGGTGCAGGC | 0.863 ± 0.082
137 | AGAGCTGGGG | 0.9849 ± 0.0079
138 | ATTTTATTTG | 1.06 ± 0.056

Row | Sequence | switch fluorescence ratio
139 | AATAACTACC | 1.15 ± 0.032
140 | TTGTATCAGG | 1 ± 0.02
141 | TGGCCCTTTT | 1.07 ± 0.13
142 | GATCTCCCCT | 1.38 ± 0.053
143 | TTATTTTTGT | 1.01 ± 0.026
144 | CTTCAGGAGC | 1.69 ± 0.11
145 | CGAAAATGTA | 0.9772 ± 0.0089
146 | TTGTCCAAAT | 0.986 ± 0.0099
147 | GATCTGGCTT | 0.976 ± 0.031
148 | TATGAATTTG | 1 ± 0.028
149 | TCGGGGGGAA | 1.06 ± 0.057
150 | TTTATCTTCC | 2.41 ± 0.065
151 | GTGACAGGTG | 1.47 ± 0.053
152 | AGGAGCGGCA | 1.018 ± 0.0095
153 | GAGCAACCTT | 1.45 ± 0.014
154 | CTCGGGGTTT | 0.998 ± 0.038
155 | CTGCGTCCAT | 1.068 ± 0.01
156 | AAGGGTGATG | 1 ± 0.049
157 | GTGTGAATGT | 1.01 ± 0.021
